Tests used:
[1] = molecular target: T1, outer-membrane usher FimD (Escherichia coli, UniProt P30130 46-878); assay: cryo-EM structure; details: both partners purified
T1 sequence: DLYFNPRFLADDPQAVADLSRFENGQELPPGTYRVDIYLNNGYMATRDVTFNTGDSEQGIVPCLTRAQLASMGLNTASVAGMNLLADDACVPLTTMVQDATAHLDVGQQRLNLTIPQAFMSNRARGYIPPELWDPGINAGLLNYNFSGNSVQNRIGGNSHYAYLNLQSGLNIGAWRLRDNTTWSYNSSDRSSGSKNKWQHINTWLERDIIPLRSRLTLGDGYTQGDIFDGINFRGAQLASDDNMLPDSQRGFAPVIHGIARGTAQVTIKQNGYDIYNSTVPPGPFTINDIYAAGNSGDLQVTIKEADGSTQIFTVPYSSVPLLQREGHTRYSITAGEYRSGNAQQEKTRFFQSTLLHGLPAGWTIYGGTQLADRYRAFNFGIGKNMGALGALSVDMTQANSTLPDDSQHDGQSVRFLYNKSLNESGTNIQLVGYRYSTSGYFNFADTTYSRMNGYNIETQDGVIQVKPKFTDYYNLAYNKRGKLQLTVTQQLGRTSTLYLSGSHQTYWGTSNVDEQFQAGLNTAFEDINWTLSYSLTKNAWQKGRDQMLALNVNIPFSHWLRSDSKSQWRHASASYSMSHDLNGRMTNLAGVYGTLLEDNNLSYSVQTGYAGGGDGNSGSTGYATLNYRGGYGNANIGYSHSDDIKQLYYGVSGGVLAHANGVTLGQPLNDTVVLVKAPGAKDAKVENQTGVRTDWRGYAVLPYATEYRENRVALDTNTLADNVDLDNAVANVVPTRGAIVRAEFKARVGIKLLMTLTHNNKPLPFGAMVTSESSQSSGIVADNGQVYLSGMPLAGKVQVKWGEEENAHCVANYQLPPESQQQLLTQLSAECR

adhesin FimH (wild type) = molecular target: T2, adhesin FimH (wild type) (Escherichia coli, UniProt P08191 22-300); assay: cryo-EM structure; FimD–FimCH complex, second class of particles in the same purified sample and dataset; ~3.5 Å; map fits PDB 3RFZ; details: both partners purified
T2 construct: also called FimHWT; tip adhesin
T2 sequence (P08191 22-300): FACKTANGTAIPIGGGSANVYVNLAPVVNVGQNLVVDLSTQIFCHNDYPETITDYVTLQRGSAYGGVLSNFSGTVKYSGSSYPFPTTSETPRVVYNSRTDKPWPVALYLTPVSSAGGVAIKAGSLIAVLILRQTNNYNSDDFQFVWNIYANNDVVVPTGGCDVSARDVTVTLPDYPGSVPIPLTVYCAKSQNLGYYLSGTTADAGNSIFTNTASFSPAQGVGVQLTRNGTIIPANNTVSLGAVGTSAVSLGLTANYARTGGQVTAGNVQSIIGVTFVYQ

B1: periplasmic chaperone FimC with a C-terminal polyhistidine tag (natural protein)
chain: GVALGATRVIYPAGQKQEQLAVTNNDENSTYLIQSWVENADGVKDGRFIVTPPLFAMKGKKENTLRILDATNNQLPQDRESLFWMNVKAIPSMDKSKLTENTLQLAIISRIKLYYRPAKLALPPDQAAEKLRFRRSANSLTLINPTPYYLTVTELNAGTRVLENALVPPMGESTVKLPSDAGSNITYRTINDYGALTPKMTGVME
notes: also called FimChis; FimCHis; not shown: polyhistidine, C-terminal, kept
binding result [1]: binds
binding result (adhesin FimH (wild type)): binds

Reference: publication PMC11459180, “Structural basis for adhesin secretion by the outer-membrane usher in type 1 pili” (Proceedings of the National Academy of Sciences of the …, 2024)
